A protein production outcome set (Wang et al. 2014)

Test: label from the status in PepcDB records
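Note: failed if final PepcDB status was selected cloned or expressed and not failed if soluble or beyond.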

Row | Sequence | protein production
1 | MQANRSQLHSPPGTGSSEDASTPQCVHTRLTGEGSCPHSGDVHIQINSIPKECAENASSRNIRSGVHSCAHGCVHSRLRGHSHSEARLTDDTAAESGDHGSSSFSEFRYLFKWLQKSLPYILILSVKLVMQHITGISLGIGLLTTFMYANKSIVNQVFLRLNFFKSYFGPFELLGSILDCWNYRLHSEILFHGLKMPYFIGAFFHHAF | failed
2 | MMQHCAPTPRLARFLFVEYRMMRQYELVERVQKYKPDANEALLNKAYVYAMQKHGQQKRANGDPYISHPLEVAAILTEMHLDESTIAVALLHDTIEDTTATRAEIDELFGEDIGRLVEGLTKLKKLDLVTRKAKQAENLRKLLLAISDDVRVLLVKLADRLHNMRTMEYMPADKRSRISEETMEIYAPLAGRMGMQDMRDELEDLSFRYLNPEAYETVTNRLLELETRNEGLIKKIEDELRELLVANGLLGTHVKGRQKKPYSVFRKMQSKSLSFEQLSDVYGFRILVDDIPGCYRALGIVHTRWRVVPGRFKDYISTPKQNDYRSIHTTIVGPSRQRIELQIRTKRMHEIAEFGIAAHALYKDGENGEGDLLSKESNAYSWLRHTIESLAEGDSPEEFLEHTKLELFQDQVFCFTPKGKLIALPRGATPIDFAYAVHTNIGDTTVGAKINGRIMPLVTRLNNGDEVEIIRSGVQVPPAAWEEVVVTGKARSAIRRATRMAIRKQYSGLGYRILERTFERAGKAFSREALKPVLHRLAQKDVEDAIAAVGRGEVSSLDVLRAVFPDYQDERVTVKMTGDDGWFNMRSASGMVFKIPGKSRSVLEDDGAAEMLDGPDPLPIRGLSGNVDVHFSAAGAVPGDRIVGIMEKGKGITIYPIQAPALQRFDDEPERWIDVRWDLDEANKSRFMARVMINALNEPGTLASVAQSIATLDVNIRGLNMVRIGTDFSELALDVEVWDLRQLNQLLSQLKDLDCVSTVARAFD | failed
3 | MASTVSVQPGRIRILKKGSWQPLDQTVGPVVYWMFRDQRLKDNWALIHAVDLANRTNAPVAVVFNLFDQFLDAKARQLGFMLKGLRQLHHQIDSLQIPFFLLQGDAKETIPNFLTECGASHLVTDFSPLREIRRCKDEVVKRTSDSLAIHEVDAHNVVPMWAASSKLEYSARTIRGKINKLLPDYLIEFPKLEPPKKKWTGMMDKKLVDWDSLIDKVVREGAEVPEIEWCVPGEDAGIEVLMGNKDGFLTKRLKNYSTDRNNPIKPKALSGLSPYLHFGQVSAQRCALEARKVRSTSPQAVDTFLEELIVRRELSDNFCYYQPHYDSLKGAWEWARKSLMDHASDKREHIYSLEQLEKGLTADPLWNASQLEMVYQGKMHGFMRMYWAKKILEWTKGPEEALSISIYLNNKYEIDGRDPSGYVGCMWSICGVHDQGWKERPVFGKIRYMNYAGCKRKFNVDSYISYVKSLVSVTKKKRKAEEQLTRDSVDPKITIV | failed
4 | MTTANTPVRPKSAIDAVADAYTEKLIELNPSFATTLGLPGHETEYQDYSPAGAAAHAEATRLALEALAGLEPSDDVDAVTLDAMRERLGLELEIHQSGWDAADLNNIASPAQDIRAIFDLMPTDTVEHWEHIAGRAANVPGAIEGYIASLRAAKDDRKVAAARQIRIVIEQTGRYAAEDGFFAKMAADASLGDAPLPAEVQDKLDAGTSAARSAYSALGAFLRDELLPVAPEKDAVGRERYSLASRSFIGAEVDLEETYAWGVQELERLISEQEKVAGQIKPGASIEEAKSILNNDPARQIKGTDALKAWMQELSDRAVSELADVHFDIPDVMKTLECMIAPTDEGGIYYTGPSDDFSRPGRMWWSVPAGEDTFTTWSETTTVFHEGVPGHHLQVATATYRRELLNNWRRNVCWVSGHGEGWALYAEQLMLELGYLKDPGDHMGMLDGQRMRAARVVFDIGVHLELPVPERWGTGTWTPEKGFDFLKANLDISEGQLQFEFTRYLGWPGQAPSYKVGQRLWEQIRAELESREGFDLKSFHSKALNIGSVGLDVLRRALL | not failed
5 | MNKWLDLILKIHVHPFLWIIAALGLLTGHMKALLCLLLIVLIHELGHAALAVFFSWRIKRVFLLPFGGTVEVEEHGNRPLKEEFAVIIAGPLQHIWLQFAAWMLAEVSVIHQHTFELFTFYNLSILFVNLLPIWPLDGGKLLFLLFSKQLPFQKAHRLNLKTSLCFCLLLGCWVLFVIPLQISAWVLFVFLAVSLFEEYRQRHYIHVRFLLERYYGKNRELEKLLPLTVKAEDKVYHVMAEFKRGCKHPIIIEKSGQKLSQLDENEVLHAYFADKRTNSSMEELLLPY | failed
6 | MGQKIHAFMFPWFAFGHMTPYLHLGNKLAEKGHRVTFLLPKKAQKQLEHQNLFPHGIVFHPLVIPHVDGLPAGAETASDIPISLVKFLSIAMDLTRDQIEAAIGALRPDLILFDLAHWVPEMAKALKVKSMLYNVMSATSIAHDLVPGGELGVAPPGYPSSKALYREHDAHALLTFSGFYKRFYHRFTTGLMNCDFISIRTCEEIEGKFCDYIESQYKKKVLLTGPMLPEPDKSKPLEDQWSHWLSGFGQGSVVFCALGSQTILEKNQFQELCLGIELTGLPFLVAVKPPKGANTIHEALPEGFEERVKGRGIVWGEWVQQPSWQPLILAHPSVGCFVSHCGFGSMWESLMSDCQIVFIPVLNDQVLTTRVMTEELEVSVEVQREETGWFSKENLSGAIMSLMDQDSEIGNQVRRNHSKLKETLASPGLLTGYTDKFVDTLENLVNEQGYIS | failed
7 | MSLGALPTAEDIDAVVLDFDGTQTDDRVLIDSDGREFVSVHRGDGLGIAALRKSGLTMLILSTEQNPVVAARARKLKIPVLHGIDRKDLALKQWCEEQGIAPERVLYVGNDVNDLPCFALVGWPVAVASAHDVVRGAARAVTTVPGGDGAIREIASWILGPSLDSLDKEGHHHHHH | not failed
8 | MFEMGIQELVKTIDTNINHMISLSVLNLAQLGIKYGIFKAVASRPSYEELLSQIPVPNKPLLKKLIEHLKALGIIEETPSNLILNGFSYVLKFPKEDYMLLLSDWIPIWEEIYKMVDFALISYSHPYVLMDFDKDADFWDIRLSSSFNKTYRDAIINLGEIREDSYILDLGCGSVSPAYFGKFISEDGKYVGVDYSPGLLEIARERVERNGLPAELKEMDVSLIRTRSKYDVAIMSFLLEYVRDREEVLGKVLEALDSGGKLIIVEAFRDEFENIQAMEFFESLNRSFVGYPAKAEIKKAILREGFDVSFEDYGKSILVVRKL | failed
9 | MDSKDESSHVWPTSAEHEQNAAQVHFVPDTGTVAQIVYTDDQVRPPQQVVYTADGASYTSVDGPEHTLVYIHPVEAAQTLFTDPGQVAYVQQDATAQQASLPVHNQVLPSIESVDGSDPLATLQTPLGRLEAKEEEDEDEDEDTEEDEEEDGEDTDLDDWEPDPPRPFDPHDLWCEECNNAHASVCPKHGPLHPIPNRPVLTRARASLPLVLYIDRFLGGVFSKRRIPKRTQFGPVEGPLVRGSELKDCYIHLKVSLDKGDRKERDLHEDLWFELSDETLCNWMMFVRPAQNHLEQNLVAYQYGHHVYYTTIKNVEPKQELKVWYAASYAEFVNQKIHDISEEERKVLREQEKNWPCYECNRRFISSEQLQQHLNSHDEKLDVFSRTRGRGRGRGKRRFGPGRRPGRPPKFIRLEITSENGEKSDDGTQDLLHFPTKEQFDEAEPATLNGLDQPEQTTIPIPQLPQETQSSLEHEPETHTLHLQPQHEESVVPTQSTLTADDMRRAKRIRLELQNAALQHLFIRKSFRPFKCLQCGKAFREKDKLDQHLRFHGREGNCPLTCDLCNKGFISSTSLESHMKLHSDQKTYSCIFCPESFDRLDLLKDHVAIHINDGYFTCPTCKKRFPDFIQVKKHVRSFHSEKIYQCTECDKAFCRPDKLRLHMLRHSDRKDFLCSTCGKQFKRKDKLREHMQRMHNPEREAKKADRISRSKTFKPRITSTDYDSFTFKCRLCMMGFRRRGMLVNHLSKRHPDMKIEEVPELTLPIIKPNRDYFCQYCDKVYKSASKRKAHILKNHPGAELPPSIRKLRPAGPGEPDPMLSTHTQLTGTIATPPVCCPHCSKQYSSKTKMVQHIRKKHPEFAQLSNTIHTPLTTAVISATPAVLTTDSATGETVVTTDLLTQAMTELSQTLTTDYRTPQGDYQRIQYIPVSQSASGLQQPQHIQLQVVQVASATSPHQSQQSTVDVGQLHDPQPYPQHAIQVQHIQVSEPTASAPSSAQVSGQPLSPSAQQAQQGLSPSHIQGSSSTQGQALQQQQQQQQNSSVQHTYLPSAWNSFRGYSSEIQMMTLPPGQFVITDSGVATPVTTGQVKAVTSGHYVLSESQSELEEKQTSALSGGVQVEPPAHSDSLDPQTNSQQQTTQYIITTTTNGNGSSEVHITKP | failed
10 | MGSSHHHHHHSSGRENLYFQGMAGGKSMNVESYEKILRDRQRELYRRLHKIEADFEEPRNPDDEDRASERSNDEVLDELGQVGQDELRAIDAALARIASGTFGTCVKCGKRISEDRLKAVPYTPFCQECAAAL | not failed
